According to PMC3135172:

Target: GST-tagged BPTF PHD-bromodomain (human)
Assay: pull-down

Substance: H4K16ac and H3K4me3 modified mononucleosome (from UniProt P62805 1-103) (complex)
- fold enhancement of binding over mononucleosomes with only H3K4me3: 2 to 3 fold
